Sequences and labels used below:
B1: RNA polymerase sigma factor SigA (Mycobacterium tuberculosis (strain ATCC 25618 / P9WGI1 (parent)
chain: MAATKASTATDEPVKRTATKSPAASASGAKTGAKRTAAKSASGSPPAKRATKPAARSVKPASAPQDTTTSTIPKRKTRAAAKSAAAKAPSARGHATKPRAPKDAQHEAATDPEDALDSVEELDAEPDLDVEPGEDLDLDAADLNLDDLEDDVAPDADDDLDSGDDEDHEDLEAEAAVAPGQTADDDEEIAEPTEKDKASGDFVWDEDESEALRQARKDAELTASADSVRAYLKQIGKVALLNAEEEVELAKRIEAGLYATQLMTELSERGEKLPAAQRRDMMWICRDGDRAKNHLLEANLRLVVSLAKRYTGRGMAFLDLIQEGNLGLIRAVEKFDYTKGYKFSTYATWWIRQAITRAMADQARTIRIPVHMVEVINKLGRIQRELLQDLGREPTPEELAKEMDITPEKVLEIQQYAREPISLDQTIGDEGDSQLGDFIEDSEAVVAVDAVSFTLLQDQLQSVLDTLSEREAGVVRLRFGLTDGQPRTLDEIGQVYGVTRERIRQIESKTMSKLRHPSRSQVLRDYLD
partner: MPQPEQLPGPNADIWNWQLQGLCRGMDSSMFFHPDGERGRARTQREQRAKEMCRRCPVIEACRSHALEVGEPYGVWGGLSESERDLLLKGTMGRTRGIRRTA

In the test the parent is B1. Conditions: with whib3_myctu whiB3, P9WF41.
As to MAATKASTATDEPVKRTATKSPAASASGAKTGAKRTAAKSASGSPPAKRATKPAARSVKPASAPQDTTTSTIPKRKTRAAAKSAAAKAPSARGHATKPRAPKDAQHEAATDPEDALDSVEELDAEPDLDVEPGEDLDLDAADLNLDDLEDDVAPDADDDLDSGDDEDHEDLEAEAAVAPGQTADDDEEIAEPTEKDKASGDFVWDEDESEALRQARKDAELTASADSVRAYLKQIGKVALLNAEEEVELAKRIEAGLYATQLMTELSERGEKLPAAQRRDMMWICRDGDRAKNHLLEANLRLVVSLAKRYTGRGMAFLDLIQEGNLGLIRAVEKFDYTKGYKFSTYATWWIRQAITRAMADQARTIRIPVHMVEVINKLGRIQRELLQDLGREPTPEELAKEMDITPEKVLEIQQYAREPISLDQTIGDEGDSQLGDFIEDSEAVVAVDAVSFTLLQDQLQSVLDTLSEREAGVVRLRFGLTDGQPRTLDEIGQVYGVTRERIRQIESKTMSKLHHPSRSQVLRDYLD [R515H], the “effect of a mutation on the interaction” value is recorded as “disrupting interaction strength”.

The record behind these values is IntAct's records for PubMed 11880648.
